T1: IL17BR interaction with protein tyrosine kinase Lyn (Mus musculus, UniProt Q9JIP3)
T1 construct: using the B cell lymphoma cell line WEHI-231; endogenous in cells; host or cells: WEHI-231 B cell lymphoma cells
T1 sequence (Q9JIP3 18-499): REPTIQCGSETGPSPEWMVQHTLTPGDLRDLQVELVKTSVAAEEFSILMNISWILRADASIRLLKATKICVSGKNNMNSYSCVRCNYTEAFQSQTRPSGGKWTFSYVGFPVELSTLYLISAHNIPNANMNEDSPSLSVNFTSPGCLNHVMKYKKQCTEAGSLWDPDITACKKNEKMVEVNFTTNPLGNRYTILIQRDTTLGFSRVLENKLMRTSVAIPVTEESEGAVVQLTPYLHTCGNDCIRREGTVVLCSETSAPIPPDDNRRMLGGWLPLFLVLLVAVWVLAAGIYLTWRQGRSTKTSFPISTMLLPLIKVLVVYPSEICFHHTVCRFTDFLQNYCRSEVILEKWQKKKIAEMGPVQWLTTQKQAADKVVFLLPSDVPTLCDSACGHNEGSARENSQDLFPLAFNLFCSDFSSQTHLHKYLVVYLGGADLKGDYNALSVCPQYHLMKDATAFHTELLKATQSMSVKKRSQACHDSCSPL

B1: murine IL-17E: Murine IL-17E from R&D Systems; predominant form starting at Val 17 of GenBank NP 542767 (protein)
chain: VSLRIQEGCSHLPSCCPSKEQEPPEEWLKWSSASVSPPEPLSHTHHAESCRASKDGPLNSRAISPWSYELDRDLNRVPQDLYHARCLCPHCVSLQTGSHMDPLGNSVPLYHNQTVFYRRPCHGEEGTHRRYCLERRLYRVSLACVCVRPRVMA
B2: human IL-17E: Recombinant human IL-17E from PeproTech; two 145 amino acid chains, predominant form starting at Tyr 33 of GenBank AAG40848 (protein, listed as Homo sapiens)
chain: YSHWPSCCPSKGQDTSEELLRWSTVPVPPLEPARPNRHPESCRASEDGPLNSRAISPWRYELDRDLNRLPQDLYHARCLCPHCVSLQTGSHMDPRGNSELLYHNQTVFYRRPCHGEKGTHKGYCLERRLYRVSLACVCVRPRVMG

Columns and labels:
[1] = tested on: human pancreatic cancer MiaPaCa-2 xenograft; assay: Antitumour efficacy in human pancreatic cancer MiaPaCa-2 xenograft model; assay type: in vivo, CD-1 athymic nude mice; conditions: 0.04 mg/kg murine IL-17E i.p. every third day
Experimental: The ability of murine interleukin 17E to inhibit human pancreatic cancer growth was examined as follows. Human pancreatic cancer MiaPaCa-2 cells (10^6 cells in 100 μl PBS) were subcutaneously implanted into the right flank of CD-1 athymic nude mice. Murine IL-17E was obtained from R&D Systems, Inc., and is present in the preparation as a disulphide linked homodimer. The predominant form of IL-17E in this preparation is the form starting at Val 17 of the murine sequence provided as GenBank Accession No. NP 542767. When tumours reached a volume of 50-100 mm^3, mice were randomly separated into two groups of 8 animals and treated as follows:
Group I: […] of PBS intraperitoneally (i.p.) per mouse every day until the endpoint of the experiment; and
Group II: 0.04 mg/kg of murine IL-17E intraperitoneally (i.p.) every third day until the endpoint of the experiment.
The size of the tumours was measured by caliper measurements throughout the experiment. Tumour weight was determined from tumour tissue surgically excised from the animal on the last day of the experiment. […]
25 μg of murine or human IL-17E were reconstituted with 200 μl PBS. […] Samples were separated by electrophoresis on SDS-PAGE gels and analyzed by either Western blotting or silver staining to show a reduction in IL-17E levels in immunodepleted samples. […]

[2] = target: T1, IL17BR interaction with protein tyrosine kinase Lyn; assay: Coimmunoprecipitation of Lyn and IL17BR in WEHI-231 cells; assay type: cell-based; conditions: 0.1 μg per 5×10^6 WEHI-231 cells, 5 minutes at 37° C.
Experimental: The effect of interleukin 17E on the induction of interaction of its receptor IL17BR with the protein tyrosine kinase Lyn was examined using the B cell lymphoma cell line WEHI-231.
A total of 5×10^6 cells per sample were incubated with 0.1 μg of human IL17E (hIL-17E) for 5 minutes at 37° C. Cells were lysed in lysis buffer for 30 minutes on ice, followed by centrifugation for 10 minutes. The tyrosine kinase Lyn was immunoprecipitated from 350 μg of protein lysate using rabbit anti-Lyn antibodies coupled to Protein A Sepharose beads. Immunoprecipitated samples containing approximately 25 μg of protein were separated by SDS-PAGE, followed by transfer to membranes for Western blotting.
For detection of phosphorylated Lyn, blots were incubated with anti-phosphotyrosine antibodies, followed by horseradish peroxidase (HRP)-conjugated anti-mouse antibodies.
For detection of IL17BR, blots were incubated with biotin-conjugated-rat anti-IL17BR antibodies, followed by HRP-conjugated streptavidin.
To assess equivalent loading of Lyn, blots were incubated with rabbit anti-Lyn antibodies, followed by HRP-conjugated-anti-rabbit antibodies.
All blots were exposed to autoradiography film and developed to detect chemiluminescence.

Molecule | tumour growth (tumour volume and weight) as compared to PBS [1] | coimmunoprecipitation of Lyn and IL17BR [2]
B1 | significantly inhibit tumour growth | –
B2 | – | coimmunoprecipitated

Reference: US8287851B2, “Use of interleukin 17E for the treatment of cancer” (Lorus Therapeutics Inc., priority 2005, dated 2012)
